This passage reports Kd results from publication PMC3774380.

The target of the data set is L-glucagon (natural) (human) (UniProt P01275). In words: competitive pull-down. The settings on record: all L-nucleotides, Selection buffer: 20 mM Tris pH 7.4, 150 mM NaCl, 5 mM KCl, 1 mM MgCl2, 1 mM CaCl2, 0.1% Tween 20, 0.1% CHAPS, 100 ug/ml HSA, 10 ug/ml yeast RNA, 37 C ….

What is called Kd is the free concentration of one partner at which half of the binding sites on the other are occupied at equilibrium, for simple one-to-one binding. The low end stands for tighter binding, the high end for weaker binding.

L-glucagon (natural) (human), sequence (P01275 53-81): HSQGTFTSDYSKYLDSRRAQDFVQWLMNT

The sequence “GCAGTGGGGAAATGGGAGGGCTAGGTGGAAGGAATCTGAGCTACTGC [L-257-E1-001-6xR]” gave a Kd (ribonucleotides at positions 9, 15, 18, 19, 29, 30, rest deoxy) of 6.4 nM.
As to “GCAGTGGGGAAATGGGAGGGCTAGGTGGAAGGAATCTGAGCTACTGC [L-257-E1-001-R15/29/30]”, the equilibrium dissociation constant (Kd) (ribonucleotides at positions 15, 29, 30, rest deoxy) was 20 nM.
On to “GCGGGAAATGGGAGGGCTAGGTGGAAGGAATCTGAGCGC [L-257-E1-030-6xR]”, for which the Kd (ribonucleotides at positions 5, 11, 14, 15, 25, 26, rest deoxy) was 6.3 nM.
